Experimental findings from paper PMC9073318 (Plant Communications, 2022) are described below.

Substitutions are numbered along the chain they refer to. In names and notes the source's numbering stands.

Series [1] deals with T1, TaPAPhy_b2 (Triticum aestivum, UniProt F6MIW5).
T1 sequence (F6MIW5 21-530): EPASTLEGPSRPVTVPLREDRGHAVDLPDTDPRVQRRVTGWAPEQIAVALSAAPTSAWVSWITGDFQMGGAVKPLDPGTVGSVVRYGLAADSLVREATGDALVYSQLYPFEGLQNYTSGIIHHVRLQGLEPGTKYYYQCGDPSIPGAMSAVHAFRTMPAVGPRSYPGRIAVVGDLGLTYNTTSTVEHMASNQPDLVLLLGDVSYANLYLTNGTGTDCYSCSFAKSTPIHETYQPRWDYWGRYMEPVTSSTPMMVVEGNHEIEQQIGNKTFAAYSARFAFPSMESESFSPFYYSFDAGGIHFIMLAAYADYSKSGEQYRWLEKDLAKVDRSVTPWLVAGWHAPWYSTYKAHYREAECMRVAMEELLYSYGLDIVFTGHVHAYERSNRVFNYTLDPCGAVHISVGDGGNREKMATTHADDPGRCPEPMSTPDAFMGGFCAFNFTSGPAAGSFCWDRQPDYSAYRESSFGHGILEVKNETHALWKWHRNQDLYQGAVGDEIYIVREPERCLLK
Also noted: gene TRAES_3BF026700100CFD_c1. The note with it: deglycosylated enzyme; product-bound state 1.42 A; bound to both irons (second structure, substrate-bound state, 1.54 A: 6GIZ).

Series [2] addresses T1, TaPAPhy_b2. As to the kind of experiment: X-ray crystal structure of soaked crystal. It counts as binding. The arrangement: gene TRAES_3BF026700100CFD_c1; signal peptide (20 aa) and C-terminal 7-aa ER-retention signal removed; alpha-factor secretion signal, C-terminal 6xHis; Pichia pastoris KM71H (OCH1::G418R); 510 residues, Fe-Fe centre; glycosylated for assays, Endo F1 deglycosylated for crystals. To be noted: 5 mM InsS6 soak, pH 5.5; deglycosylated enzyme; site adjacent to active centre (standby mode), phosphate at catalytic centre.

Substrate in the series “purified protein”: O=P(O)(O)O[C@H]1[C@H](OP(=O)(O)O)[C@@H](OP(=O)(O)O)[C@H](OP(=O)(O)O)[C@@H](OP(=O)(O)O)[C@H]1OP(=O)(O)O
As to the kind of experiment: purified protein. To be noted: 0.2 M acetate pH 5.5, glycosylated enzyme.

In the case of `O=P(O)(O)O` [phosphate], at TaPAPhy_b2 [1], the X-ray crystal structure result is given as “A phosphate ion is bound to the two metal ions”.

With `O=S(=O)(O)O[C@H]1[C@H](OS(=O)(=O)O)[C@@H](OS(=O)(=O)O)[C@H](OS(=O)(=O)O)[C@@H](OS(=O)(=O)O)[C@H]1OS(=O)(=O)O` [InsS6, myo-inositol hexakissulfate], the “X-ray crystal structure of soaked crystal” value at TaPAPhy_b2 [2] is “it binds at a site immediately adjacent to the active center”.

B1: TaPAPhy_b2 (Triticum aestivum) (protein)
chain: T1 sequence (F6MIW5 21-530)
For orientation: Km means the substrate concentration at which the rate is half of its maximum. As usually defined, the kcat is the maximal rate divided by the concentration of active sites. Regarding B1, in the series “purified protein”, the Km stood at 76.4 ± 7.7 µM and the kcat came to 23.8 ± 0.9 s⁻¹.

B2: TaPAPhy_b2 (Triticum aestivum; K368A) (protein)
chain: T1 sequence (F6MIW5 21-530) with K348A
For the molecule B2, in “purified protein”, the Michaelis-Menten constant (Km) was 214.6 ± 46.6 µM and the turnover number (kcat) was determined as 28.4 ± 3.0 s⁻¹.

B3: TaPAPhy_b2 (Triticum aestivum; K430A) (protein)
chain: T1 sequence (F6MIW5 21-530) with K410A
For B3, in the series “purified protein”, the Km is 307.6 ± 56.7 µM and the kcat was determined as 3.1 ± 0.3 s⁻¹.
